Patent publication US20250179196A1 (Janssen / Centocor, published 2025)

T1: Recombinant human IL-23 receptor (IL-23R) extracellular domain (ECD) protein (human, UniProt Q5VWK5 24-355)
T1 construct: also called human IL-23R ECD; hu IL-23R ECD
T1 sequence: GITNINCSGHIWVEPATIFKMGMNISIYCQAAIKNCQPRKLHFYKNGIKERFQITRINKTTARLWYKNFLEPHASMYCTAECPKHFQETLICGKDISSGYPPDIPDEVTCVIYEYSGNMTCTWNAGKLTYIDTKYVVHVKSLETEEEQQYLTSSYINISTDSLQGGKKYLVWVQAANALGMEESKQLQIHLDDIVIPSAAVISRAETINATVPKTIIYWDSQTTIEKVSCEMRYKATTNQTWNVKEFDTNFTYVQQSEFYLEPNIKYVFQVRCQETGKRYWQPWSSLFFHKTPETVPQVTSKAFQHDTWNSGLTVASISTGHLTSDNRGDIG

B1: I23RB31 (antibody, mouse IgG2a, kappa, V domains shown)
VH: EFQLQQSGAEMVRPGASVKLSCKASGYTFTGYWMNWVKQRPGQGLEWIGKIDPSDTETHYNQNFKDKATLTVDKSSSTAYMQLNSLTSEDSAVYYCARWGLGRNFAMDYWGQGTTLTVSS
VL: DIVLTQSPATLSVTPGDRVSLSCRASQSISDHLHWYQQKSHESPRLLIKFASQSISGIPSRFSGSGSGSDFTLSIDSVEPEDVGVYYCQNGHSFPLTFGSGTKLEIKR
notes: mouse immunization; mouse IgG2a/kappa
B2: I23RB45 (antibody, mouse IgG2a, kappa, V domains shown)
VH: QVTLKESGPGILQPSQTLSLTCSFSGFSLSTYGMGVSWIRQPSGKGLEWLAHIYWDDDKRYNPSLKSRLTISKDTSNNQVFLKITSVDTADTATYYCAQRALPLLGQKAPFDYWGQGTTLTVSS
VL: DIVLTQSQKFISTSVGDRVSITCKASQNVRTAVAWYQQKPGQSPKLLIYLPSNRHTGVPDRFTGSGSGTVFTLTISNVQSEDQADYFCLQHWNYPLTFGAGTKLELKR
notes: as for B1
B3: I23RB85 (antibody, mouse IgG2a, kappa, V domains shown)
VH: DVQLQESGPGLVAPSQSLSITCTVSGFSFNTYAITWVRQPPGRGLEWLGVLWPGGGISYNLALKSRLTISRDSSKSQVFLEMNSLQTDDTARYYCARNWRHYDGSYAMDFWGQGTSVTVSS
VL: DIVLTQSPLSLFVSLGDQASISCRSSQSLVHSNGNTYLHWYLQKPGQSPKLLIYKVSNRFSGVPDRFSGSGSGTDFTLKISRVEAEDLGVYFCSQSTHVPWTFGGGTRLEIKR
notes: as for B1
B4: I23RB317 (antibody, mouse IgG2a, kappa, V domains shown)
VH: QVQLVQSGAEVKKPGSSVKVSCKASGGTFSSYAISWVRQAPGQGLEWMGGIIPIFGTANYAQKFQGRVTITADESTSTAYMELSSLRSEDTAVYYCARGNGVNYHSELDYWGQGTLVTVSS
VL: EIVLTQSPATLSLSPGERATLSCRASQSVDSFLAWYQQKPGQAPRLLIYTASNRATGIPARFSGSGSGTDFTLTISSLEPEDFAVYYCQQGNSAPFTFGQGTKVEIKR
notes: phage display; human V regions, mouse IgG2a/kappa constant regions
B5: I23RB91 (antibody, mouse IgG2a, kappa, V domains shown)
VH: EFQLQQFGPELLKPGASVKISCKASGYTFTDYIMHWVKQSHGKSLEWIGGISPNYGGTGYNGKFKDKATLTVDKSSSTAYMELRSLTSEDSAVYYCARFNNYYYFDYWGQGTTLTVSS
VL: DIKMTQSPSSMYASLGERVTITCKASQDINSYLSWCQQKPGKSPKALIYRANSLVDGVPSRFSGSGSGQDYSLTISSLEYEDMGIYYCLQYDEFPYTFGGGTKLEMKR
notes: as for B1
B6: I23RB177 (antibody, mouse IgG2a, kappa, V domains shown)
VH: EVQLQQSGPELLKPGASVKISCKASGYTITDYTMHWVKQSHGKSLEWIGGINPNYGGTSYNEKFKDKATLTVDKSSSTAYMELRSLTSEDSAVFYCVRGNIYFDYWGQGTTLTVSS
VL: NTQMTQSPSSMYASLGERVTITCKASQDINSYLSWFQQKPGKSPKALIYRANRLVDGVPSRFSGSGSGQDYSLTISSLEYEDMGIYYCQQYDEFPRTFGAGTKLELKR
notes: as for B1
B7: I23RB260 (antibody, mouse IgG2a, kappa, V domains shown)
VH: QVQLVQSGAEVKKPGSSVKVSCKASGGTFSSYGISWVRQAPGQGLEWMGGIIPIFGTANYAQKFQGRVTITADESTSTAYMELSSLRSEDTAVYYCARDFGWSLWFDYWGQGTLVTVSS
VL: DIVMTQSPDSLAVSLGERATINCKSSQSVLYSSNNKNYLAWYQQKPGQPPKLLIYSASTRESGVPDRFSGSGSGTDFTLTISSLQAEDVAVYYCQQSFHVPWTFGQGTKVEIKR
notes: as for B4
B8: I23RB180 (antibody, mouse IgG2a, kappa, V domains shown)
VH: QVTLKESGPGILQPSQTLSLTCSFSGFSLSTYGMGVGWIRQPSGKGLEWLANIWWNDSKYHNAALKSRLTISKDTSKNQVFLKIASVDTADTATYYCGRIDGYYECVDVWGTGTSVTVSS
VL: DIQMTQSPASLSASVGETVTITCRASVNIHNYLAWYQQKQGKSPQLLVYNAKTLADGVPSRFSGSGSGTQYSLKINSLQPEDFGSYYCQHFWTTPYMYTFGAGTKLELKR
notes: as for B1
B9: I23RB161 (antibody, mouse IgG2a, kappa, V domains shown)
VH: EFQLQQSGPELVKPGASVKISCKASVYAFSSSWMNWVKQRPGKGLEWIGRIYPGDGDTNYNGKFKGKATLTADKSSSTAYMQLSSLTSEDSAVYFCARRYDFGSAMDYWGQGTSVTVSS
VL: DIVMTQSPAILSASPGEKVTMTCRASSSVSYMHWYQQKPGSSPKPWIYATSDLASGAPARFSGSGSGTSYSLTISRVEAEDAATYYCQQWSSNPPTFGGGTKLEIKR
notes: as for B1
B10: I23RB69 (antibody, mouse IgG2a, kappa, V domains shown)
VH: EVQLQQSGAELVKPGASVKISCKASGYSFTGYNMNWVKQSHGKSLEWIGNINPFYDKTSYNQKFKGKATLTVDKASSTAYMQLNSLTSEDSAVYYCARQLGLKGFAYWGQGTLVTVSA
VL: DIVMTQSHKFMSTSVGDRVSITCKASQDVSTAVAWYQQKPGQSPKLLIYSASYRYTGVPDRFTGSGSGTDFTFTISSVQAEDLAVYYCQQHYSTPWTFGGGTKLEMKR
notes: as for B1
B11: I23RB321 (antibody, mouse IgG2a, kappa, V domains shown)
VH: QVQLVQSGAEVKKPGSSVKVSCKASGGTFSSYGISWVRQAPGQGLEWMGWISAIFGTTNYAQKFQGRVTITADESTSTAYMELSSLRSEDTAVYYCARHWLQSFDYWGQGTLVTVSS
VL: DIQMTQSPSSLSASVGDRVTITCRASQSIGGDLNWYQQKPGKAPKLLIYAASSLQSGVPSRFSGSGSGTDFTLTISSLQPEDFATYYCQQSYSTPLTFGQGTKVEIKR
notes: as for B4
B12: I23RB264 (antibody, mouse IgG2a, kappa, V domains shown)
VH: QVQLVQSGAEVKKPGSSVKVSCKASGGTFSSYAISWVRQAPGQGLEWMGGIIPIFGTANYAQKFQGRVTITADESTSTAYMELSSLRSEDTAVYYCARRSSPGFDYWGQGTLVTVSS
VL: DIQMTQSPSSLSASVGDRVTITCRASQSIDNDLNWYQQKPGKAPKLLIYNASSLQSGVPSRFSGSGSGTDFTLTISSLQPEDFATYYCQQPYSIPLTFGQGTKVEIKR
notes: as for B4
B13: I23RB319 (antibody, mouse IgG2a, kappa, V domains shown)
VH: QVQLVQSGAEVKKPGSSVKVSCKASGGTFSSYGISWVRQAPGQGLEWMGWISAIFGTTNYAQKFQGRVTITADESTSTAYMELSSLRSEDTALYYCARPLKQAFDYWGQGTLVTVSS
VL: DIQMTQSPSSLSASVGDRVTITCRASQSITDDLNWYQQKPGKAPKLLIYAASSLQSGVPSRFSGSGSGTDFTLTISSLQPEDFATYYCQQSYSTPLTFGQGTKVEIKR
notes: as for B4
B14: I23RB259 (antibody, mouse IgG2a, kappa, V domains shown)
VH: QVQLVQSGAEVKKPGSSVKVSCKASGGTFSSYGISWVRQAPGQGLEWMGWISPIFGTTNYAQKFQGRVTITADESTSTAYMELSSLRSEDTAVYYCARMMMQSLDYWGQGTLVTVSS
VL: not shown
notes: as for B4
B15: I23RB261 (antibody, mouse IgG2a, kappa, V domains shown)
VH: QVQLVQSGAEVKKPGSSVKVSCKASGGTFSSYAISWVRQAPGQGLEWMGWISPYFGTANYAQKFQGRVTITADESTSTAYMELSSLRSEDTAVYYCARMYRQGFDYWGQGTLVTVSS
VL: DIQMTQSPSSLSASVGDRVTITCRASQSINDDLNWYQQKPGKAPKLLIYAASSLQSGVPSRFSGSGSGTDFTLTISSLQPEDFATYYCQQSYSTPLTFGQGTKVEIKR
notes: as for B4

Legend:
[1] = target: T1, Recombinant human IL-23 receptor …; assay: SPR Biacore 8K, supernatant, analysis 2
Method: (§1) Affinity by SPR using Biacore 8K. Affinity measurements using Surface Plasmon Resonance (SPR) were performed using a Biacore 8K system (Cytiva). […] Approximately 9000-10000 RU (response units) of mAbs were immobilized. The kinetic experiments were performed at 25° C. in running buffer 1× of (HBS-P+ Buffer 10× (Cytiva #BR100671)+100 μg/ml BSA). To perform kinetic experiments, approximately 150 RU of mAbs were captured followed by injections of human IL-23R or rat IL-23R at concentrations ranging from 0.8 nM to 500 nM (in a 5-fold serial dilution). The association phase was monitored for 3 minutes at 50 μL/min, then followed by 30 minutes of buffer flow (dissociation phase). […] The collected data were processed using Biacore insight Evaluation software (Version 3.0.12.15655). The kinetic analysis of the data was performed using a Langmuir 1:1 binding model. The result for each mAb was reported in the format of Ka (On-rate), Kd (Off-rate) and KD (equilibrium dissociation constant).

[2] = target: T1, Recombinant human IL-23 receptor …; assay: SPR Biacore 8K, supernatant, analysis 1
Method: as §1

Binder	Kd [1] [nM]	koff [1] [s⁻¹]	kon [1] [M⁻¹ s⁻¹]	Kd [2] [nM]	koff [2] [s⁻¹]	kon [2] [M⁻¹ s⁻¹]
B1	8.55	0.000781	91300	18.9	0.00123	65500
B2	22.5	0.00456	203000	21	0.00332	158000
B3	1.43	0.000178	124000	1.08	0.000226	210000
B4	–	–	–	25.2	0.000596	23600
B5	–	–	–	5.15	0.00011	21400
B6	–	–	–	5.7	0.000107	18800
B7	–	–	–	4.75	8.72e-05	18400
B8	–	–	–	150	0.0302	201000
B9	–	–	–	84.5	0.0274	324000
B10	–	–	–	263	0.0493	188000
B11	–	–	–	18.4	0.000384	20900
B12	–	–	–	17.9	0.000847	47400
B13	–	–	–	9.05	8.01e-05	8850
B14	–	–	–	13.4	0.000752	55900
B15	–	–	–	22.5	0.000402	17900
